Source: publication PMC9482650, “Quantitative fragmentomics allow affinity mapping of interactomes” (Nature Communications, 2022)

How the values were obtained:
Experiment in all cases: holdup assay
Set-up in all cases: key: below the threshold = too weak to quantify, mostly under pKd 3.1 to 4
Details in all cases: plain residues with an end cap or a label only (N-terminal biotin on a linker: ado-ado)
[1] = target: T1, DFNB31_3, Q9P202
T1 sequence (Q9P202 811-907, limits assumed, looked up): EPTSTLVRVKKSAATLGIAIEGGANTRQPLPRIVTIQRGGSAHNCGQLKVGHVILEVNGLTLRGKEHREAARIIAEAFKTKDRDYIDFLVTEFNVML

[2] = target: T2, PTPN13_1, Q12923
T2 sequence (Q12923 1088-1188, limits assumed, looked up): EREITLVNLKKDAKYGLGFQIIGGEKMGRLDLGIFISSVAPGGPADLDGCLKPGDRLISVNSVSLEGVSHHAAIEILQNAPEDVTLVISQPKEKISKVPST

[3] = target: CASK, O14936
Sequence of CASK, O14936 (O14936 487-570): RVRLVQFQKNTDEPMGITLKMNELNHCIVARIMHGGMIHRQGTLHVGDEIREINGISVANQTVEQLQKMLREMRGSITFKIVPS

[4] = target: T3, DFNB31_2, Q9P202
T3 sequence (Q9P202 274-371, limits assumed, looked up): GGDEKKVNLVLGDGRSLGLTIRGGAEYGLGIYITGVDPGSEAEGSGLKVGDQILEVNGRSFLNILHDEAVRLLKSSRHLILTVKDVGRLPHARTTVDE

[5] = target: NHERF2_2, Q15599
Sequence of NHERF2_2, Q15599 (Q15599 142-238): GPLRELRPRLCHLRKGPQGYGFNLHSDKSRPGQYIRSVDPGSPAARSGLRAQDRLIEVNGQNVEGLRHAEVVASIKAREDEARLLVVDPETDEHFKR

[6] = target: T4, GRIP1_7, Q9Y3R0
T4 sequence (Q9Y3R0 999-1096, limits assumed, looked up): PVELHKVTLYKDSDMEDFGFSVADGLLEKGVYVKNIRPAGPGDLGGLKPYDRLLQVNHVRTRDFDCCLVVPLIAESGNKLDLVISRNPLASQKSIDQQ

[7] = target: T5, MPDZ_12, O75970
T5 sequence (O75970 1857-1958, limits assumed, looked up): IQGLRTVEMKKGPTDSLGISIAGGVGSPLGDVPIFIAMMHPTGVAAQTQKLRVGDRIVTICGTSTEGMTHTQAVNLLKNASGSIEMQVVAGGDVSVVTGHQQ

[8] = target: Inadl_8, Q8NI35
Sequence of Inadl_8, Q8NI35 (Q8NI35 1425-1530): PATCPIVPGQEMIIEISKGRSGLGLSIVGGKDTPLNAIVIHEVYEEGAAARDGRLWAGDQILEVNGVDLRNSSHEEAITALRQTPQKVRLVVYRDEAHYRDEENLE

[9] = target: DLG4_2, P78352
Sequence of DLG4_2, P78352 (P78352 155-259): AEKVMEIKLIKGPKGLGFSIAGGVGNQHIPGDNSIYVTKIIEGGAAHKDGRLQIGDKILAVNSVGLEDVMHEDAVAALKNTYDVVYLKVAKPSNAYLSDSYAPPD

[10] = target: TJP1_3, Q07157
Sequence of TJP1_3, Q07157 (Q07157 416-512): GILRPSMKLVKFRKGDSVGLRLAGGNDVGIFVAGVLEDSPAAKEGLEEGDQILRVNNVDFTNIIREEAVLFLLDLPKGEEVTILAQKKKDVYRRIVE

[11] = target: T6, PDZD7_3, Q9H5P4
T6 sequence (Q9H5P4 857-944, limits assumed, looked up): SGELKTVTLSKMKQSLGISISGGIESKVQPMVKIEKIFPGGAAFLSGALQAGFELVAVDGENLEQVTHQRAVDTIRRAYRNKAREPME

[12] = target: GOPC, Q9HD26
[13] = target: T7, APBA2_2, Q99767
T7 sequence (Q99767 654-744, limits assumed, looked up): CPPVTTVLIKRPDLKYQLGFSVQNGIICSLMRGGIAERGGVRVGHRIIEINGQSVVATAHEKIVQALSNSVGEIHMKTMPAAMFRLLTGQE

[14] = target: T8, SHANK1, Q9Y566
T8 sequence (Q9Y566 658-767, limits assumed, looked up): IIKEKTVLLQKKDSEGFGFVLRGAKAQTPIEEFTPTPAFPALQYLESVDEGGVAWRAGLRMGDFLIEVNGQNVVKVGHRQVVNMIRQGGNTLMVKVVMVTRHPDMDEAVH

[15] = target: T9, MPP6, Q9NZW5
T9 sequence (Q9NZW5 125-219, limits assumed, looked up): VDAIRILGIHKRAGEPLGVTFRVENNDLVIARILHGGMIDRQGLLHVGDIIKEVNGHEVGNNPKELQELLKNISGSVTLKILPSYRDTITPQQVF

[16] = target: FRMPD2_2, Q68DX3
Sequence of FRMPD2_2, Q68DX3 (Q68DX3 944-1038): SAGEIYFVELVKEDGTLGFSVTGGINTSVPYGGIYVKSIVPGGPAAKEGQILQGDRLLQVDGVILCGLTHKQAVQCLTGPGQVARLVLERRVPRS

[17] = target: MAST1, Q9Y2H9
Sequence of MAST1, Q9Y2H9 (Q9Y2H9 962-1065): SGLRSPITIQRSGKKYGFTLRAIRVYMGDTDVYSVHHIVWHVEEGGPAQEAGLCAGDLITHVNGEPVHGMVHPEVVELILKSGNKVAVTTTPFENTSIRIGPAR

[18] = target: MAGI1_1, Q96QZ7
Sequence of MAGI1_1, Q96QZ7 (Q96QZ7 1-106): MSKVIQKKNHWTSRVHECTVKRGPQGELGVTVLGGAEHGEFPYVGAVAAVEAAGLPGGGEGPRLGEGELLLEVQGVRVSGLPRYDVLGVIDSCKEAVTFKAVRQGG

[19] = target: PDZRN4_1, Q6ZMN7
Sequence of PDZRN4_1, Q6ZMN7 (Q6ZMN7 213-318): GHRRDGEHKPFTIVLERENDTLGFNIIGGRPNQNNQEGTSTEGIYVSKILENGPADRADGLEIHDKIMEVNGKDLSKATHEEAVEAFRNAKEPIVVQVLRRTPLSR

[20] = target: T10, APBA1_1, Q02410
T10 sequence (Q02410 651-752, limits assumed, looked up): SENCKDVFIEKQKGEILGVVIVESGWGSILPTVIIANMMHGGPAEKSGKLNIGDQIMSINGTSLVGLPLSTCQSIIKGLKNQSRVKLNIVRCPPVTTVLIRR

[21] = target: GRID2IP_1, A4D2P6
Sequence of GRID2IP_1, A4D2P6 (A4D2P6 1-87): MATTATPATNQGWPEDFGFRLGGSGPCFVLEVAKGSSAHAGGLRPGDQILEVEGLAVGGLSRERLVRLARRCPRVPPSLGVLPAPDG

[22] = target: GRIP2_3, Q9C0E4
Sequence of GRIP2_3, Q9C0E4 (Q9C0E4 238-339): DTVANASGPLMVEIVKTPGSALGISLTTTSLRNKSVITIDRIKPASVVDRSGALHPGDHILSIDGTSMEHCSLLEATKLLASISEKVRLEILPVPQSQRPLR

[23] = target: DLG4_3, P78352
Sequence of DLG4_3, P78352 (P78352 306-403): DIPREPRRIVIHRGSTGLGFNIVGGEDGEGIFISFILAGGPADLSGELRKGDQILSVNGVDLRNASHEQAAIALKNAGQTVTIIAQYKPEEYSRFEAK

[24] = target: T11, GRIP1_3, Q9Y3R0
T11 sequence (Q9Y3R0 247-346, limits assumed, looked up): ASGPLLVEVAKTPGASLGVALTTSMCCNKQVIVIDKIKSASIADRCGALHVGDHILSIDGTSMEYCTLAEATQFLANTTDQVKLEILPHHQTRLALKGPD

[25] = target: T12, SYNJ2BP, P57105
T12 sequence (P57105 8-110, limits assumed, looked up): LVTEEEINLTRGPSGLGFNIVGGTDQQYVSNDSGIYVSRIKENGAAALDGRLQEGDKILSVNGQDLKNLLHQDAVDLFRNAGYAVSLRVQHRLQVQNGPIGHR

[26] = target: MAGI1_2, Q96QZ7
Sequence of MAGI1_2, Q96QZ7 (Q96QZ7 456-580): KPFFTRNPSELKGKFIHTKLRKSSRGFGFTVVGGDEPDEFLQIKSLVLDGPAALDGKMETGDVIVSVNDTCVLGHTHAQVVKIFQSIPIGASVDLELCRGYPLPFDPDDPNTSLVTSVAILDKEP

| Binder | pKd [1] | pKd [2] | pKd [3] | pKd [4] | pKd [5] | pKd [6] | pKd [7] | pKd [8] | pKd [9] | pKd [10] | pKd [11] | pKd [12] | pKd [13] | pKd [14] | pKd [15] | pKd [16] | pKd [17] | pKd [18] | pKd [19] | pKd [20] | other results |
| --- | --- | --- | --- | --- | --- | --- | --- | --- | --- | --- | --- | --- | --- | --- | --- | --- | --- | --- | --- | --- | --- |
| RHGSCVETSL [TMEM151B, Q8IW70] | below the threshold | below the threshold | below the threshold | below the threshold | 4.75 | below the threshold | below the threshold | below the threshold | 4.59 | below the threshold | 4.46 | 4.41 | below the threshold | 4.64 | below the threshold | 3.57 | 5.12 | below the threshold | 5.27 | below the threshold | pKd [21]: below the threshold; pKd [22]: below the threshold; pKd [23]: 4.11; pKd [24]: below the threshold; pKd [25]: 5.1; pKd [26]: 3.76 |
| IPLDGETEEL [MYOZ1, Q9NP98] | below the threshold | below the threshold | below the threshold | below the threshold | 3.96 | below the threshold | below the threshold | below the threshold | below the threshold | below the threshold | below the threshold | below the threshold | below the threshold | below the threshold | below the threshold | below the threshold | 4.1 | below the threshold | below the threshold | below the threshold | pKd [21]: below the threshold; pKd [22]: below the threshold; pKd [23]: below the threshold; pKd [24]: below the threshold; pKd [25]: below the threshold; pKd [26]: below the threshold |
| GNSVLKSTQF [SLC22A12, Q96S37] | 3.56 | below the threshold | below the threshold | below the threshold | 4.47 | below the threshold | below the threshold | below the threshold | below the threshold | below the threshold | 4 | below the threshold | below the threshold | 4.96 | below the threshold | below the threshold | 4.26 | below the threshold | below the threshold | below the threshold | pKd [21]: below the threshold; pKd [22]: below the threshold; pKd [23]: below the threshold; pKd [24]: below the threshold; pKd [25]: below the threshold; pKd [26]: below the threshold |
| QSLNRMEYIV [JAG1, P78504] | 3.86 | below the threshold | below the threshold | below the threshold | below the threshold | below the threshold | below the threshold | below the threshold | 3.78 | below the threshold | 3.68 | below the threshold | below the threshold | below the threshold | 3.9 | below the threshold | 3.49 | below the threshold | below the threshold | below the threshold | pKd [21]: below the threshold; pKd [22]: below the threshold; pKd [23]: below the threshold; pKd [24]: below the threshold; pKd [25]: below the threshold; pKd [26]: below the threshold |
| QMNQTLPVQV [EPHB3, P54753] | below the threshold | below the threshold | below the threshold | below the threshold | 3.51 | below the threshold | 3.53 | 3.55 | 3.66 | below the threshold | below the threshold | 3.58 | below the threshold | 3.54 | below the threshold | below the threshold | 3.93 | below the threshold | below the threshold | below the threshold | pKd [21]: below the threshold; pKd [22]: below the threshold; pKd [23]: below the threshold; pKd [24]: below the threshold; pKd [25]: below the threshold; pKd [26]: below the threshold |
